In data set [1] the test system is Saccharomyces cerevisiae. The data set is described as follows: protein stability index of tFT-peptide fusion (C-terminal peptide) (PSI (0-1 scale)); higher = more stable (slower turnover). The procedure: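 MPS profiling in S. cerevisiae of the tFT-X12 degron library: putative degron peptides plus stable controls, 12 aa, fused to the C-terminus of a sfGFP-mCherry timer. Cells are FACS-sorted into 8 mCherry/sfGFP bins and deep-sequenced. PSI runs from 0 (unstable) to 1 (stable). Backgrounds are wild type, das1Δ and doa10Δ at 30 °C, and wild type, das1Δ, cdc34-1 and cdc53-1 at 37 °C; 2-3 technical replicates each.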

The test system of data set [2] is Saccharomyces cerevisiae. The data set is described as above. As to conditions: genetic background: wild type; temperature: 30 C.
Setting [3] is: genetic background: cdc34-1, temperature: 37 C.
The mark [4] stands for this setting: genetic background: cdc53-1, temperature: 37 C.
Where [5] appears, read: genetic background: das1 deletion, temperature: 30 C.
Setting [6] is: genetic background: das1 deletion, temperature: 37 C.
Setting [7] is: genetic background: doa10 deletion, temperature: 30 C.
Where [8] appears, read: genetic background: wild type, temperature: 30 C.
The mark [9] stands for this setting: genetic background: wild type, temperature: 37 C.

This is an account of results in the supplement of paper PMC10724198.

± gives the standard deviation of the averaged measurements.
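Also: PSI is a weighted mean of sequencing reads over stability bins, variants kept only with over 10 reads, mCherry proximal and sfGFP distal, peptide attached via GGGS linker.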

As for YFLAMFIISGGV, the protein stability index in data set [1] (setting [3]) turned out to be 0.371 ± 0.032; in data set [1] (setting [4]), 0.435 ± 0.032; in data set [1] (setting [5]) it was 0.28 ± 0.034; in data set [1] (setting [6]) it was 0.4798 ± 0.0021; in data set [1] (setting [7]), 0.248 ± 0.011; in data set [1] (setting [8]), 0.263 ± 0.042. The protein stability index in data set [1] (setting [9]) worked out at 0.443 ± 0.031; in data set [2] it was 0.478 ± 0.073.
In the case of YILPTPTVISLA, the protein stability index in data set [1] (setting [3]) is 0.262 ± 0.025; in data set [1] (setting [4]) it was 0.271 ± 0.006; in data set [1] (setting [5]), 0.249 ± 0.034; in data set [1] (setting [6]), 0.3667 ± 0.0033; in data set [1] (setting [7]), 0.211 ± 0.0069; in data set [1] (setting [8]) it was 0.256 ± 0.021. Also, the protein stability index is 0.326 ± 0.01 in data set [1] (setting [9]) and 0.337 ± 0.029 in data set [2].
Turning to YLGPHLRWARCV, the protein stability index stood at 0.495 ± 0.018 in data set [1] (setting [3]); 0.715 ± 0.02 in data set [1] (setting [4]); 0.662 ± 0.027 in data set [1] (setting [5]); 0.768 ± 0.025 in data set [1] (setting [6]); 0.1228 ± 0.00053 in data set [1] (setting [7]); 0.125 ± 0.016 in data set [1] (setting [8]). For the same sequence, the protein stability index in data set [1] (setting [9]) stood at 0.183 ± 0.033; in data set [2], 0.254 ± 0.015.
Turning to YLSLPSSIFLCF, the protein stability index in data set [1] (setting [3]) turned out to be 0.501 ± 0.022; in data set [1] (setting [4]) it was 0.504 ± 0.0066; in data set [1] (setting [5]) it was 0.461 ± 0.018; in data set [1] (setting [6]), 0.59 ± 0.019; in data set [1] (setting [7]) it was 0.498 ± 0.024; in data set [1] (setting [8]), 0.38 ± 0.015. In addition, the figures for the protein stability index in data set [1] (setting [9]) and in data set [2] were 0.5422 ± 0.0047 and 0.422 ± 0.085, respectively.
As to YLTLAGFPLNLF, the protein stability index came to 0.666 ± 0.014 in data set [1] (setting [3]); 0.7399 ± 0.0022 in data set [1] (setting [4]); 0.649 ± 0.017 in data set [1] (setting [5]); 0.762 ± 0.0092 in data set [1] (setting [6]); 0.273 ± 0.0065 in data set [1] (setting [7]); 0.314 ± 0.017 in data set [1] (setting [8]). Also, the protein stability index is 0.531 ± 0.011 in data set [1] (setting [9]) and 0.469 ± 0.041 in data set [2].
YNNKITRYRRDS: the protein stability index in data set [1] (setting [3]) is 0.654 ± 0.053; in data set [1] (setting [4]) it was 0.731 ± 0.034; in data set [1] (setting [5]) it was 0.661 ± 0.055; in data set [1] (setting [6]), 0.752 ± 0.0077; in data set [1] (setting [7]), 0.388 ± 0.012; in data set [1] (setting [8]) it was 0.375 ± 0.024. The protein stability index in data set [1] (setting [9]) is 0.612 ± 0.0082; in data set [2], 0.52 ± 0.082.
Consider YRNRKMYCITNC, for which the protein stability index was 0.682 ± 0.03 in data set [1] (setting [3]); 0.737 ± 0.017 in data set [1] (setting [4]); 0.636 ± 0.038 in data set [1] (setting [5]); 0.743 ± 0.018 in data set [1] (setting [6]); 0.207 ± 0.044 in data set [1] (setting [7]); 0.26 ± 0.017 in data set [1] (setting [8]). Besides, the protein stability index in data set [1] (setting [9]) was found to be 0.51 ± 0.058; in data set [2], 0.423 ± 0.014.
Regarding YTHRYFVRLFAV, the protein stability index in data set [1] (setting [3]) amounted to 0.518 ± 0.047; in data set [1] (setting [4]), 0.708 ± 0.0076; in data set [1] (setting [5]), 0.504 ± 0.019; in data set [1] (setting [6]) it was 0.6558 ± 0.0057; in data set [1] (setting [7]) it was 0.206 ± 0.0073; in data set [1] (setting [8]) it was 0.2 ± 0.014. Further, the protein stability index was found to be 0.405 ± 0.0098 in data set [1] (setting [9]) and 0.3123 ± 0.0026 in data set [2].
Turning to YVLVVSFLACVF, the protein stability index is 0.0628 ± 0.013 in data set [1] (setting [3]); 0.172 ± 0.053 in data set [1] (setting [4]); 0.142 ± 0.03 in data set [1] (setting [5]); 0.266 ± 0.0094 in data set [1] (setting [6]); 0.104 ± 0.021 in data set [1] (setting [7]); 0.13 ± 0.014 in data set [1] (setting [8]). In addition, the figures for the protein stability index in data set [1] (setting [9]) and in data set [2] were 0.234 ± 0.0088 and 0.192 ± 0.012, respectively.
Regarding YWIFCYFFWGGV, the protein stability index in data set [1] (setting [3]) stood at 0.392 ± 0.032; in data set [1] (setting [4]), 0.483 ± 0.0098; in data set [1] (setting [5]), 0.358 ± 0.032; in data set [1] (setting [6]), 0.518 ± 0.008; in data set [1] (setting [7]) it was 0.3153 ± 0.0014; in data set [1] (setting [8]), 0.35 ± 0.015. The values for the protein stability index in data set [1] (setting [9]) and in data set [2] were 0.501 ± 0.02 and 0.455 ± 0.037, respectively.
